According to publication PMC3681700 (Molecular Biology of the Cell, 2013):
Like-named read-outs stand apart in the source and are kept apart here.

Columns and labels:
[1] = target: T1, Taxol-stabilized microtubules assembled from bovine brain tubulin (bovine, UniProt Q6B856 1-445); test: co-sedimentation
[2] = target: T1, Taxol-stabilized microtubules assembled …

| Kd [1] | Kd [2] | Binder |
| --- | --- | --- |
| 21 ± 2 nM |  | MAP65-1 (GFP-MAP65-1) (natural protein, Arabidopsis thaliana, UniProt Q9FLP0 1-587, looked up) MAVTDTESPHLGEITCGTLLEKLQEIWDEVGESDDERDKLLLQIEQECLDVYKRKVEQAAKSRAELLQTLSDANAELSSLTMSLGDKSLVGIPDKSSGTIKEQLAAIAPALEQLWQQKEERVREFSDVQSQIQKICGDIAGGLSNEVPIVDESDLSLKKLDDFQSQLQELQKEKSDRLRKVLEFVSTVHDLCAVLGLDFLSTVTEVHPSLDEDTSVQSKSISNETLSRLAKTVLTLKDDKKQRLQKLQELATQLIDLWNLMDTPDEERELFDHVTCNISSSVDEVTVPGALARDLIEQAEVEVDRLDQLKASRMKEIAFKKQSELEEIYARAHVEVNPESARERIMSLIDSGNVEPTELLADMDSQISKAKEEAFSRKDILDRVEKWMSACEEESWLEDYNRDQNRYSASRGAHLNLKRAEKARILVSKIPAMVDTLVAKTRAWEEEHSMSFAYDGVPLLAMLDEYGMLRQEREEEKRRLREQKKVQEQPHVEQESAFSTRPSPARPVSAKKTVGPRANNGGANGTHNRRLSLNANQNGSRSTAKEAGRRETLNRPAAPTNYVAISKEEAASSPVSGAADHQVPASP |
|  | 41 ± 7 nM | Ase1 (natural protein, yeast, UniProt P50275 1-885, looked up) METATSSPLPIKSRRNSENSGSTTVIPHMNPSLATPLTVSTMVNQSNSKEFMKLTPVRIRDFGSPLKNVSTNYHFLDSENGKGNTMDNMYRENFILISKDLEKLLENLNVIYQNIGYSNTEIITKEKIIFTTISNSIKQFFEQADEELKRLSAENGIEQDILNNILERINDPSGIKTIPDLYIRNAILLQESKTVPQSPKKPLSLLSKKAALDTAKKFVLGSFLPRLRDYLKSLITLKHLIQSVKENLPGLTEADNEAIAEFPELSTLTAYLLQIENGKGDIGLSMKFIIDNRKDILKGSAFKTINEESVKHMNEVIKIYEEEYERRFKSVLTKKVSISSICEQLGTPLATLIGEDFEQDLRSYGEEENSTSEIPNFHPVDRERMSKIDITLEKLQAIHKERADKKRLLMEQCQKLWTRLKISQEYIKTFMRNNSSLSTESLGRISKEVMRLEAMKKKLIKKLISDSWDKIQELWRTLQYSEESRSKFIIVFEELRNSATTLQEDELLLETCENELKRLEEKLTLYKPILKLISDFESLQEDQEFLERSSKDSSRLLSRNSHKILLTEEKMRKRITRHFPRVINDLRIKLEEADGLFDQPFLFKGKPLSEAIDIQQQEIEAKYPRCRVRMQRSKKGKCGANKENKVIKNTFKATESSIRVPIGLNLNDANITYKTPSKKTIQGLTKNDLSQENSLARHMQGTTKLSSPNRRATRLLAPTVISRNSKGNIERPTLNRNRSSDLSSSPRINHTHGEHAVKPRQLFPIPLNKVDTKGSHIPQLTKEKALELLKRSTGTTGKENVRSPERKSSLEDYAQKLSSPYKEPEHSIYKLSMSPEGKFQLNIQQKDIESGFDDTSMMEDENDKDFITWKNEQVSKLNGFSFTDI |
| 19 ± 2 nM |  | MAP65-4 (GFP-MAP65-4) (natural protein, Arabidopsis thaliana, UniProt Q9LZY0 1-677, looked up) MIRNSTEQFSRIETTCGLLLRQLQEIWNEMGETEDEKDASLADIEKECLSVYKRKVEEASRGKANLLKEIAVGRAEIAAIGSSMGGQEIHSNSRLGENLKEELENVNVQLDGLRKRKAERMIRFNEVIDQLLKLSLQLGNPTDYLKKFAAEETDLSLQRLEELRSQLGELQNEKSKRLEEVECLLKTLNSLCSVLGEDFKGMIRGIHSSLVDSNTRDVSRSTLDKLDMMIVNLREAKLQRMQKVQDLAVSLLELWNLLDTPAEEQKIFHNVTCSIALTESEITEANILSVASIKRVEDEVIRLSKIKITKIKEVILRKRLELEEISRKMHMATEVLKSENFSVEAIESGVKDPEQLLEQIDSEIAKVKEEASSRKEILEKVEKWMSACEEESWLEEYNRDDNRYNAGRGAHLTLKRAEKARLLVNKLPGMVEALTAKVTAWENERGNEFLYDGVRVLSMLGQYKTVWEEKEHEKQRQRDMKKLHGQLITEQEALYGSKPSPNKSGKKPLRTPVNAAMNRKLSLGGAMLHQSLKHEKATLNSKRTKYYDQNATSRRDSALPTLSGRRNSELPGRIRSKNVPVAGKAARSPMLRKPLSPVTSNILNSPEDHHKDAYTTKERILTPKTNEEKKRAVPTTPAASVAMTEATTPFTPAVEKRMDEEDVIVEYSFEEVRAGFC |
